Target: T1, recombinant flag-tagged NDRG1 purified from Drosophila S2 cells (human, UniProt Q92597-1 1-394)
T1 construct: NDRG1; The vector pMT/BiP/V5-His adds a BiP secretion signal (the protein was collected as secreted protein); also called NDRG1flag; NDRG1Flag; not shown: Flag, C-terminal, kept
Assay: pull-down; NDRG1Flag bound to M2 agarose; 1 microgram of purified Rab4aGST loaded with 10 µM GTPγS (30 min, 37 °C) in 20 mM HEPES, 1 mM MgCl2, 1 mM DTT, 100 mM potassium acetate, incubated 1 h; Western blot
Conditions: both partners purified

T1 sequence (Q92597 whole entry): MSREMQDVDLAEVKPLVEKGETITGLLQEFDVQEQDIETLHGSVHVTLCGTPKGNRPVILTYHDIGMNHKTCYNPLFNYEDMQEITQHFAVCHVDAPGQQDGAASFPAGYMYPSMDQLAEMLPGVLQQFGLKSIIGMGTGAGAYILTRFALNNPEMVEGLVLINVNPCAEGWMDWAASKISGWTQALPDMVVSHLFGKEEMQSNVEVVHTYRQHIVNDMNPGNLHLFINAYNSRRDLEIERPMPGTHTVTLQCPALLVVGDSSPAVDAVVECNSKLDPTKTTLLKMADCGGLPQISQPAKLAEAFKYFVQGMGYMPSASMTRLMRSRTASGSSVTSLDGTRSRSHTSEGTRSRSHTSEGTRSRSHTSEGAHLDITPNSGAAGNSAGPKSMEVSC

B1: Rab4a produced as a GST fusion protein (natural protein, UniProt P20338 1-218, looked up)
chain: MSQTAMSETYDFLFKFLVIGNAGTGKSCLLHQFIEKKFKDDSNHTIGVEFGSKIINVGGKYVKLQIWDTAGQERFRSVTRSYYRGAAGALLVYDITSRETYNALTNWLTDARMLASQNIVIILCGNKKDLDADREVTFLEASRFAQENELMFLETSALTGENVEEAFVQCARKILNKIESGELDPERMGSGIQYGDAALRQLRSPRRAQAPNAQECGC
notes: Rab4a amplified from a prostate cDNA library and cloned in PGEX2T; also called Rab4aGST; recombinant Rab4a; source: E. coli BL21 (DE3), purified (glutathione agarose)
B1: binds.

Reference: paper PMC1952073, “The N-Myc Down Regulated Gene1 (NDRG1) Is a Rab4a Effector Involved in Vesicular Recycling of E-Cadherin” (PLoS ONE, 2007)
